Assays:
[1] = target: human Gi heterotrimer (human) (UniProt P63096)
[2] = target: human Gq heterotrimer (human) (UniProt P50148)
human Gq heterotrimer (human), sequence (P50148 whole entry, looked up, one chain of several): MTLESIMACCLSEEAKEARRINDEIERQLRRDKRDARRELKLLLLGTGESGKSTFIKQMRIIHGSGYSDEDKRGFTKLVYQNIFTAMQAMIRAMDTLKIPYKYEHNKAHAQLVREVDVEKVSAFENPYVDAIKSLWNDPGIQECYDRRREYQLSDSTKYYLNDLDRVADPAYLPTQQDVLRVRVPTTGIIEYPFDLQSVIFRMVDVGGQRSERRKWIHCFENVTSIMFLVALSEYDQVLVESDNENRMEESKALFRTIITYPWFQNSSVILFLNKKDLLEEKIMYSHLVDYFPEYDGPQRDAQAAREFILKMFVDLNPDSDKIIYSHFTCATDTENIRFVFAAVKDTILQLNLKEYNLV

human Gi heterotrimer (human), sequence (P63096 whole entry, looked up, one chain of several): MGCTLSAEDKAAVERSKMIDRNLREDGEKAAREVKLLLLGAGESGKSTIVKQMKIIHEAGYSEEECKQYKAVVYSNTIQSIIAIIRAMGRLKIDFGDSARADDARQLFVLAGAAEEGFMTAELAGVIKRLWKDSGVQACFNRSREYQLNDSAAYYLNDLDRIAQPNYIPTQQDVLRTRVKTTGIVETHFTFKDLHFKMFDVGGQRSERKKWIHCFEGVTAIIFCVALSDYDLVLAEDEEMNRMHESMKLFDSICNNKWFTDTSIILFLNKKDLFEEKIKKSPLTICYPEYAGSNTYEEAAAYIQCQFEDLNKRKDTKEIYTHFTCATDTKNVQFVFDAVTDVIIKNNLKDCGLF

GTPase-Glo assay: GTP depletion by Gi heterotrimer with JSR1/9-cis retinal, after illumination [1]: 92%
GTPase-Glo assay: GTP depletion by Gi heterotrimer with JSR1/9-cis retinal, without illumination [1]: 57%
GTPase-Glo assay: GTP depletion by Gq heterotrimer with JSR1/9-cis retinal, after illumination [2]: 44%
GTPase-Glo assay: GTP depletion by Gq heterotrimer with JSR1/9-cis retinal, without illumination [2]: 7%
Substance: Jumping Spider Rhodopsin-1 (JSR1) reconstituted with 9-cis retinal (receptor)

From publication PMC11295067
